Measured values: the supplement of paper PMC10065799, “High-throughput profiling of sequence recognition by tyrosine kinases and SH2 domains using bacterial peptide display” (eLife, 2023)

Columns and labels:
EPHB1 = EPHB1 (UniProt P54762); assay: phosphorylation enrichment, bacterial display (enrichment ratio); higher = better substrate or ligand; peptides without Tyr show the background
Hck = Hck (UniProt P08631); assay: as above
Fes = Fes (UniProt P07332); assay: as above
Fyn = Fyn (UniProt P06241); assay: as above
FGFR3 = FGFR3 (UniProt P22607); assay: as above
MERTK = MERTK (UniProt Q12866); assay: as above
c-Src = assay: as above
Jak2 = Jak2 (UniProt O60674); assay: as above
c-Abl (mouse) = assay: as above
FGFR1 = FGFR1 (UniProt P11362); assay: as above
EPHB2 = EPHB2 (UniProt P29323); assay: as above
AncSZ = assay: as above
Fer (mouse) = assay: as above
SHP2-C SH2 = assay: SH2 binding enrichment of the phosphorylated peptide, bacterial display (enrichment ratio); higher = better substrate or ligand; peptides without Tyr show the background
Grb2 SH2 = Grb2 SH2 (UniProt P62993); assay: as above
c-Src SH2 = assay: as above
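For SH2 binding enrichment of the phosphorylated peptide, bacterial display in this document: peptide library displayed on the E. coli surface as eCPX fusions, selected cells deep-sequenced, score is each peptide's frequency after selection divided by its frequency in the input.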
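For phosphorylation enrichment, bacterial display in this document: 11-residue human phosphosite peptides and single-mutation variants displayed on the E. coli surface, counted by deep sequencing, each peptide's frequency after selection divided by its frequency in the unselected input library; frequency after pTyr selection over input frequency; kinase dosed for 20-30% of maximal phosphorylation in three min.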

Chain of Jak2 (O60674 whole entry, looked up): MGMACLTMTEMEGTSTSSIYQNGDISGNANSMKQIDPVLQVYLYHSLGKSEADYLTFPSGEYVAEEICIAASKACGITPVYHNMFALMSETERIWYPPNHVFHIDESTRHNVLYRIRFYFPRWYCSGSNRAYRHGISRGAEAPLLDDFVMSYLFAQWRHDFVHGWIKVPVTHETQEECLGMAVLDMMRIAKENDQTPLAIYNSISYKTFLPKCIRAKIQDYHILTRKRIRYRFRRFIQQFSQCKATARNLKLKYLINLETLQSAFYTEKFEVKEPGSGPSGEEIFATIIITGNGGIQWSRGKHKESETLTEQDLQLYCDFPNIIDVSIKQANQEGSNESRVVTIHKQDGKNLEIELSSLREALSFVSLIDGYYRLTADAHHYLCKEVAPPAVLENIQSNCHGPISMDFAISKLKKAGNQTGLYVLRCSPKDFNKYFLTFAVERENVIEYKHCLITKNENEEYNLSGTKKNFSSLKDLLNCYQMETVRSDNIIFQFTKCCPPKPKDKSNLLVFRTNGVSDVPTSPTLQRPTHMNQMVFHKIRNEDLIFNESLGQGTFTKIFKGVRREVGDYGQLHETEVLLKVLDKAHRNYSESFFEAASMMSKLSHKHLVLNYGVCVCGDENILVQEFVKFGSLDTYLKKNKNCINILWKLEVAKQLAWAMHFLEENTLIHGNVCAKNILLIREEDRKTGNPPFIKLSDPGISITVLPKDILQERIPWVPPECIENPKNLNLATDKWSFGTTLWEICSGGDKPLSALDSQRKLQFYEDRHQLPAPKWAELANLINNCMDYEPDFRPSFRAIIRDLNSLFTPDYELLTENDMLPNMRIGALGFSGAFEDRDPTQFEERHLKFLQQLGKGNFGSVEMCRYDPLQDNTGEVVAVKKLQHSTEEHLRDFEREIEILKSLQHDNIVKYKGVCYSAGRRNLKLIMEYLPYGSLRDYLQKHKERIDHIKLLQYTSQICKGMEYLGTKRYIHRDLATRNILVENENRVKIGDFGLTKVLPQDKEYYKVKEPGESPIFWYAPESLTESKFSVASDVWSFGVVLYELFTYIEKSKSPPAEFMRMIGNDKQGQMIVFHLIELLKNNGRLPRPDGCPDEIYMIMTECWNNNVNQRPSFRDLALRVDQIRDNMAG
Chain of Grb2 SH2 (P62993 whole entry, looked up): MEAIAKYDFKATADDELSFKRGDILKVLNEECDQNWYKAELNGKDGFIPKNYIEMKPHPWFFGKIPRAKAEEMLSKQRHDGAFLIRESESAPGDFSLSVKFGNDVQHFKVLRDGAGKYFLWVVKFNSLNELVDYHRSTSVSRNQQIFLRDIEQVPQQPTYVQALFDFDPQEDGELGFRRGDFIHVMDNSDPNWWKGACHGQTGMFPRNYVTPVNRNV
Chain of Fyn (P06241 whole entry, looked up): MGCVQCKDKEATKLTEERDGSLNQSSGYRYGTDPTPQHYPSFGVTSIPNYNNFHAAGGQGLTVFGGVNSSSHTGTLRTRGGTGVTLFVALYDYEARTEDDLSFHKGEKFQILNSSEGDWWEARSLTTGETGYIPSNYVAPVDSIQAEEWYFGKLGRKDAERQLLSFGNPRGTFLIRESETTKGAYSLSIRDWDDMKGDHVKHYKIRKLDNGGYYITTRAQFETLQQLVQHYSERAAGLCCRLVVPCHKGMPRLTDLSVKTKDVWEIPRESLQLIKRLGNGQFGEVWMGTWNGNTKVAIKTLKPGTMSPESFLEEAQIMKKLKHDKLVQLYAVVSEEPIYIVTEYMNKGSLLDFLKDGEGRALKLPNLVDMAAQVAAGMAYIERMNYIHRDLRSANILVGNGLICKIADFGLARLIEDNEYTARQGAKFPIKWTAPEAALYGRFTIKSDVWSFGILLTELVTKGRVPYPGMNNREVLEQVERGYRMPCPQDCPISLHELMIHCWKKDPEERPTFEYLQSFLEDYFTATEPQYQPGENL
Chain of Hck (P08631 whole entry, looked up): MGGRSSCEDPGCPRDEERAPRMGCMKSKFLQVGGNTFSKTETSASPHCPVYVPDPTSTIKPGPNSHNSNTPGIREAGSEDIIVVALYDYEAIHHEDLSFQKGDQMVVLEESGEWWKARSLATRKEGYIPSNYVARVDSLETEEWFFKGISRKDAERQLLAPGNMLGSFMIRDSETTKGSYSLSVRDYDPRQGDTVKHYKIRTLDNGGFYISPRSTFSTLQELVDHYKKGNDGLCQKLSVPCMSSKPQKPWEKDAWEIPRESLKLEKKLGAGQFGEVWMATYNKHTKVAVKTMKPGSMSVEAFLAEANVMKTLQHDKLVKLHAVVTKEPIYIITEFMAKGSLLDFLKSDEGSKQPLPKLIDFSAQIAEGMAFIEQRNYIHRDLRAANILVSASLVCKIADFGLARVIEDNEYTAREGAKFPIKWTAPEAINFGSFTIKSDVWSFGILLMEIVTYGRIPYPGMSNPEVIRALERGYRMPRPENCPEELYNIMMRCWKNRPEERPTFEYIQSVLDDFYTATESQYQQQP
Chain of FGFR3 (P22607 whole entry, looked up): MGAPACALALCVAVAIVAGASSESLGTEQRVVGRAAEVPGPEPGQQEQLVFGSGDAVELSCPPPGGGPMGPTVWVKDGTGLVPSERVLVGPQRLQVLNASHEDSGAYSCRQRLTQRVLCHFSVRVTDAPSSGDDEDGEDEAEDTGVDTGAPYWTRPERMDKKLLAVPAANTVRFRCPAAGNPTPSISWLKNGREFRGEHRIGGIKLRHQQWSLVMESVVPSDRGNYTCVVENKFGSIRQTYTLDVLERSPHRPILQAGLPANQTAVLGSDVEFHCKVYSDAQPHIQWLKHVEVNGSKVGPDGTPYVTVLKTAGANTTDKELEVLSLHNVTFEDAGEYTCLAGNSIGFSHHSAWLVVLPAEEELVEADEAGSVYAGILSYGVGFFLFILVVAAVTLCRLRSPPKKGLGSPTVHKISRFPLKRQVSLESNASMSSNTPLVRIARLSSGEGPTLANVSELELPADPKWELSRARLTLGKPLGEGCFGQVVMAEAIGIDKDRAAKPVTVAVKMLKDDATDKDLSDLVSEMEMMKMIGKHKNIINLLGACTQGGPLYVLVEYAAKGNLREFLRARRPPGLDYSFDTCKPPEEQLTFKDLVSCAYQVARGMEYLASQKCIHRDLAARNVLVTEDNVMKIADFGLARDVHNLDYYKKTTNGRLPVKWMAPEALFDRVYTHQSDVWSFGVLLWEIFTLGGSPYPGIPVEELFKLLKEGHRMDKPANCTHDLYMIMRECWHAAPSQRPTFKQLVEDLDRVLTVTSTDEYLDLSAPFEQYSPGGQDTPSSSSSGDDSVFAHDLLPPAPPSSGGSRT
Chain of FGFR1 (P11362 whole entry, looked up): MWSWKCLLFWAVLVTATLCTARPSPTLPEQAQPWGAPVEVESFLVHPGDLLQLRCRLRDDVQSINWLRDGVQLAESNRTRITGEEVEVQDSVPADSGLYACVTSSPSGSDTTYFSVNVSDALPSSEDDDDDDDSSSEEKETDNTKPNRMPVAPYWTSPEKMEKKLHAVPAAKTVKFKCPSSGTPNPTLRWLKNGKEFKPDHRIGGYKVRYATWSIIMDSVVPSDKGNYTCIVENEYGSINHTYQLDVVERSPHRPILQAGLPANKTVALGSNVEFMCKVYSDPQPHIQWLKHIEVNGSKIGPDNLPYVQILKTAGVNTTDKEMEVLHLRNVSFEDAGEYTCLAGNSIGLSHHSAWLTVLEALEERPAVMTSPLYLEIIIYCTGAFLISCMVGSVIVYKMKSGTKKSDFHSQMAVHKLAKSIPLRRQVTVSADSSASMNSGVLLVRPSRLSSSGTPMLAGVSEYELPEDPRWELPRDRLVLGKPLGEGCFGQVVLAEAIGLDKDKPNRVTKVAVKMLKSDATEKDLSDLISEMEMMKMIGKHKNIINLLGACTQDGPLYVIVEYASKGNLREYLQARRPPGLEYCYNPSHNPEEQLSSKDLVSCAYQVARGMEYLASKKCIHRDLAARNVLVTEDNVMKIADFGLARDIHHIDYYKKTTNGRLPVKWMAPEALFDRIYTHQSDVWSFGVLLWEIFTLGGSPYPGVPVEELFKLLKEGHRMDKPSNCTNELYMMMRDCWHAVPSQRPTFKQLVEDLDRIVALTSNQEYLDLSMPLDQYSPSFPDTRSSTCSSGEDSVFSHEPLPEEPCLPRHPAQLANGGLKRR
Chain of EPHB1 (P54762 whole entry, looked up): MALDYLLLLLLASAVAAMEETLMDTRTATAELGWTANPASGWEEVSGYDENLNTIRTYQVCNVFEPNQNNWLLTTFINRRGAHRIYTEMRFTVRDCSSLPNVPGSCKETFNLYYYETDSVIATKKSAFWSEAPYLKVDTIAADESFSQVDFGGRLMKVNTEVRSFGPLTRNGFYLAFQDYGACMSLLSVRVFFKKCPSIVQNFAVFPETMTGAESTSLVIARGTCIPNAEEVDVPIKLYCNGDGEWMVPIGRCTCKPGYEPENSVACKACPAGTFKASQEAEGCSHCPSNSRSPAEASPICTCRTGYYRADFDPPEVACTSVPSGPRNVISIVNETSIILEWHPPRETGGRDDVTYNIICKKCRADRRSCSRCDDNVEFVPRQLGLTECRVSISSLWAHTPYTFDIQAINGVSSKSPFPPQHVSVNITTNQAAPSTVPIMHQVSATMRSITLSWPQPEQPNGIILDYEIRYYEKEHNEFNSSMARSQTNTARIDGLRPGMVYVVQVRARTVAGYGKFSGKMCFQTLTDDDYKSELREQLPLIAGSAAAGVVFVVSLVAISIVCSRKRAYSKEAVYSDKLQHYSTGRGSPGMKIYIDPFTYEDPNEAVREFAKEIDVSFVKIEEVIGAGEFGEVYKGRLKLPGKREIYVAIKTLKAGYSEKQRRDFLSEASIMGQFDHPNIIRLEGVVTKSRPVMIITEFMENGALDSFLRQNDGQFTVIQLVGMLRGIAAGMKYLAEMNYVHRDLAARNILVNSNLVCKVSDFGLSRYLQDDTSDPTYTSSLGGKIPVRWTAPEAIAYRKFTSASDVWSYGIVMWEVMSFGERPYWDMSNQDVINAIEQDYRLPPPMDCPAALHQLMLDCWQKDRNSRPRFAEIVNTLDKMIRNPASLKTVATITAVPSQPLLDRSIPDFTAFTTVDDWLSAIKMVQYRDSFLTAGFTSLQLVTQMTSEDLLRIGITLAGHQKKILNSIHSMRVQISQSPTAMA

| Sequence | phosphorylation enrichment (EPHB1) | phosphorylation enrichment (Hck) | phosphorylation enrichment (Fes) | phosphorylation enrichment (Fyn) | phosphorylation enrichment (FGFR3) | phosphorylation enrichment (MERTK) | phosphorylation enrichment (c-Src) | phosphorylation enrichment (Jak2) | phosphorylation enrichment (c-Abl (mouse)) | phosphorylation enrichment (FGFR1) | phosphorylation enrichment (EPHB2) | phosphorylation enrichment (AncSZ) | phosphorylation enrichment (Fer (mouse)) | SH2 binding enrichment (SHP2-C SH2) | SH2 binding enrichment (Grb2 SH2) | SH2 binding enrichment (c-Src SH2) |
| --- | --- | --- | --- | --- | --- | --- | --- | --- | --- | --- | --- | --- | --- | --- | --- | --- |
| LTDRGYSFVTT [ACTA1_Y200_E197D] | 0.852 | 0.677 | 1.23 | 0.8 | 0.756 | 0.846 | 0.6 | 1.88 | 1.17 | 0.772 | 1.04 | 1.38 | 0.653 | 6.52 | 0.988 | 10 |
| PNEAVYTKMMT [G6PD_Y401] | 0.506 | 1.96 | 0.972 | 2.31 | 0.571 | 1.48 | 4.58 | 0.838 | 0.674 | 0.555 | 0.479 | 1 | 6.07 | 0.811 | 0.899 | 2 |
| EREYKYDAHNY [OAT_Y50_G51D] | 0.412 | 0.498 | 1 | 0.434 | 0.574 | 0.429 | 0.367 | 0.8 | 0.705 | 0.445 | 0.575 | 0.757 | 0.559 | 0.74 | 0.781 | 0.703 |
| PFTRNYFVRAV [CYBA_Y87_YF] | 0.413 | 0.595 | 0.967 | 0.533 | 0.739 | 0.544 | 0.419 | 0.93 | 0.868 | 0.788 | 0.708 | 1.04 | 0.408 | 0.327 | 0.868 | 0.519 |
| CTTIHYSYMCN [TP53_Y234_N235S] | 0.524 | 0.53 | 0.916 | 0.465 | 0.724 | 0.874 | 0.526 | 0.663 | 0.627 | 0.667 | 0.628 | 0.897 | 1.01 | 6.33 | 1.58 | 5.17 |
| KILGRYFETGS [PAX2_Y72_YF] | 0.414 | 0.397 | 0.656 | 0.408 | 0.496 | 0.375 | 0.413 | 0.759 | 0.563 | 0.459 | 0.467 | 0.575 | 0.464 | 0.845 | 0.9 | 0.438 |
| RPSRWYQFPVA [ANOS1_Y259_R262P] | 0.403 | 0.5 | 0.889 | 0.496 | 1.38 | 7.23 | 0.648 | 0.914 | 0.657 | 2.41 | 0.433 | 2.95 | 0.692 | 2.07 | 1.79 | 1.71 |
| CTTIHYYYMCN [TP53_Y234_N235Y] | 0.585 | 0.804 | 1.08 | 1.41 | 2.11 | 0.767 | 1.05 | 1.27 | 0.644 | 2.74 | 0.773 | 0.991 | 0.574 | 1.96 | 1.6 | 2.94 |
| EGNERYEGYCV [GRIA3_Y451] | 0.542 | 0.574 | 1.14 | 0.544 | 0.742 | 0.418 | 0.579 | 0.944 | 0.761 | 0.575 | 0.562 | 0.982 | 0.579 | 0.693 | 0.881 | 2.3 |
| LVTCSYLLGNS [LMNA_Y646_R644C] | 1.14 | 0.803 | 3.29 | 0.756 | 1.72 | 0.99 | 1.3 | 2.94 | 1.95 | 0.76 | 1.56 | 2.16 | 0.959 | 0.765 | 0.732 | 0.37 |
| NHFKIYNPCAE [PTEN_Y68_L70P_YF] | 0.494 | 0.56 | 0.996 | 0.564 | 0.676 | 0.452 | 0.474 | 0.807 | 0.809 | 0.458 | 0.518 | 0.816 | 0.442 | 0.798 | 0.901 | 0.752 |
| RKLVDYDSARH [BIN1_Y150] | 0.498 | 0.418 | 0.968 | 0.449 | 0.668 | 0.57 | 0.649 | 0.792 | 0.916 | 0.571 | 0.481 | 0.491 | 0.565 | 0.42 | 1.03 | 0.387 |
| DERQPYAHMNG [IGF1R_Y1346] | 0.359 | 0.427 | 0.599 | 0.438 | 0.459 | 0.343 | 0.376 | 0.533 | 0.455 | 0.45 | 0.362 | 0.588 | 0.456 | 0.767 | 0.729 | 1.85 |
| DLAGRYFALKS [CKB_Y173_YF] | 0.487 | 0.453 | 0.848 | 0.433 | 0.613 | 0.558 | 0.545 | 1.57 | 1.49 | 0.412 | 0.574 | 0.633 | 0.37 | 0.688 | 1.38 | 0.585 |
| HNLYSYPTKHE [MYO3A_Y1396] | 11.6 | 8.1 | 1.18 | 5.22 | 0.838 | 13.6 | 2.96 | 0.561 | 3.28 | 0.782 | 16 | 3.92 | 15.2 | 0.752 | 0.619 | 1.8 |
| CGTPDYIAPEI [PRKCG_Y521] | 0.715 | 0.568 | 1.14 | 0.53 | 1.26 | 0.444 | 0.433 | 0.882 | 0.632 | 1.23 | 0.755 | 1.99 | 0.484 | 0.699 | 0.853 | 0.589 |
| WFKKFYDANFD [MAPRE2_Y158_YF] | 0.501 | 0.421 | 1.28 | 0.37 | 0.6 | 0.399 | 0.368 | 0.85 | 0.537 | 0.378 | 0.374 | 0.998 | 0.373 | 0.639 | 1.06 | 0.512 |
